{"source": "patent EP1644414B1", "binders": {"B1": {"name": "SC03-046 (scFv)", "scFv": "AMAEVQLVQSGGGLVQPGGSLRLSCAASGFTFSSYAMHWVRQAPGKGLEYVSGISSNGGSTYYANSVKGRFTISRDNSKNTLYLQMGSLRAEDMAVYYCARTTNRAFDIWGQGTMVTVSSGTGGSGGTGSGTGGSTDVVMTQSPDSLAVSLGERATINCKSSQSVLYSSNNKNYLAWYQQKPGQPPKLLIYWASTRESGVPDRFSGSGSGTDFSLTISSLQAEDVAVYYCQQYYSPPYTFGPGTKVEIKRAA"}, "B2": {"name": "SC03-055 (scFv)", "scFv": "AMAQVQLQQWGAGLLKPSETLSLTCAVYGGSFSGFYWSWIRQPPGKGLEWIGEINHSGSTNYNPSLKSRVTISADTSKNQFSLKLSSVTAADTAVYYCARRVEVVEYQLLRPRYKSWFDPWGQGTLVTVSSGTGGSGGTGSGTGGSTQSVLTQPPSVSGAPGQRVSISCSGSGANGGTDPVSWYQKFPGTAPHLLIYDNNKRPSGIPDRFSGSKSGASATLDITGLQTGDEADYYCGAWDPSLSGYVFGTGTQLTVLSAA"}, "B3": {"name": "SC03-034 (scFv)", "scFv": "AMAEVQLVQSGAEVKKPGESLKISCKGSGYGFITYWIGWVRQMPGKGLEWMGIIYPGDSETRYSPSFQGQVTISADKSINTAYLQWSSLKASDTAIYYCAGGSGISTPMDVWGQGTTVTVSSGTGGSGGTGSGTGGSTDVVMTQSPDSLAVSLGERATINCKSSQSILNRSNNKNYLAWYQQKPGQPPKLLIYWASTRESGVPDRFSGSGSGTDFNLTISSLQAEDVAVYYCQQYNNWPLTFGGGTKVDIKRAA"}, "B4": {"name": "SC03-051 (scFv)", "scFv": "AMAQVQLVQSGTEVKKPGESLKISCKGSGYGFITYWIGWVRQMPGKGLEWMGIIYPGDSETRYSPSFQGQVTISADKSINTAYLQWSSLKASDTAIYYCAGGSGISTPMDVWGQGTTVTVSSGTGGSGGTGSGTGGSTDIQMTQSPDSLAVSLGERATINCKSGQSILYSSNDKNYLAWYQQKPGQPPKLLIYWASTRESGVPDRFSGSGSGTDFTLTISSLQAEDVAVYYCQQYYSTPYTFGQGTKVEIKRAA"}, "B5": {"name": "SC03-036 (scFv)", "scFv": "AMAEVQLVQSGTEVKKPGESLKISCKGSGYGFITYWIGWVRQMPGKGLEWMGIIYPGDSETRYSPSFQGQVTISADKSINTAYLQWSSLKASDTAIYYCAGGSGISTPMDVWGQGTTVTVSSGTGGSGGTGSGTGGSTDIQMTQSPDSLAVSLGERATINCKSSQSVLHSPNNKNYLAWYQQKPGQPPKLLIYWASTRESGVPDRFSGSGSGTDFTLTISSLQAEDVAVYYCQQYYSTNSFGQGTKLEIKRAA"}, "B6": {"name": "SC03-043 (scFv)", "scFv": "AMAQVQLVQSGGGLVQPGGSLRLSCAASGFTFSSYAMHWVRQAPGKGLEYVSGISSNGGSTYYANSVKGRFTISRDNSKNTLYLQMGSLRAEDMAVYYCARTTNRAFDIWGQGTMVTVSSGTGGSGGTGSGTGGSTDIQLTQSPDSLAVSLGERATINCKSSQSVLYRSNNKNYLAWYQQKPGQPPKLLIYWASTRESGVSERFSGSGSGTDFTLTISSLQAEDVAVYYCQQYYSTPYSFGQGTKLEIKRAA"}, "B7": {"name": "SC03-039 (scFv)", "scFv": "AMAEVQLVESGGGLVQPGGSLRLSCAASGFTFSSYAMSWVRQAPGKGLEWVSVIYSGGTSTYYADSVKGRFTISRDNSKNTLYLQMNSLRAEDTAVYFCAKGSKWNDVGGGDYWGQGTLVTVSSGTGGSGGTGSGTGGSTNFMLTQPHSVSESPGKTVTISCAGSSGSIASNYVQWYQQRPGSAPTTVIYEDNQRPSGVPDRFSGSIDSSSNSASLTISGLKTEDEADYYCQSYDGYLWIFGGGTKLTVLGAA"}, "B8": {"name": "SC03-057 (scFv)", "scFv": "AMAQVQLVQSGAEVKKPGSSVKVSCKASGGTFSRYAISWVRQAPGQGLEWMGRINPILNLTNYAQKFQGRVTITADKSTSTAYMEMSSLRSEDTAIYYCASPDIVVAGHASPPHYTMDVWGQGTTVTVSSGTGGSGGTGSGTGGSTDIQMTQSPSSLSASVGDRVTITCRASQGIRNDLGWYQQKPGKAPNLLIYQASALQSGVPSRFSGSESGAEFTLTISSLHPDDFATYYCQQYHDFPITFGQGTRLEIKRAA"}, "B9": {"name": "SC03-031 (scFv)", "scFv": "AMAQVQLVQSGADVKKPGSSVKVSCEASGGTFSSYAISWVRQAPGQGLEWMGRIIPILGITNYAQKFQGRVTITADKSTGTGNMELSSLRSEDTAVYYCARESGGGYDNHFDYWGQGTLVTVSSGTGGSGGTGSGTGGSTQSVLTQPPSASGTPGQRVTISCSGGSSNIGSNTVNWYQQLPGTAPKLVIYANNQRPSGVPDRFSASKSGTSASLAISGLQSEDEADYYCAAWDDSLTGGVFGGGTQLTVLSAA"}, "B10": {"name": "SC03-040 (scFv)", "scFv": "B6 scFv with L140M, K160R, R168S, S201P, E202D, T236S"}, "B11": {"name": "SC03-044 (scFv)", "scFv": "B6 scFv with Q4E, Q9E, S10T, L140M, R168S, S201P, E202D, S205R, V225L"}, "B12": {"name": "SC03-054 (scFv)", "scFv": "B6 scFv with Q4E, L14V, G19R, R168S, S201P, E202D, S207G, L246V"}, "B13": {"name": "SC03-033 (scFv)", "scFv": "AMAQVQLVQSGTEVKKPGESLKISCKGSGYGFITYWIGWVRQMPGKGLEWMGIIYPGDSETRYSPSFQGQVTISADKSINTAYLQWSSLKASDTAIYYCAGGSGISTPMDVWGQGTTVTVSSGTGGSGGTGSGTGGSTDVVMTQSPDSLAVSLGERATINCKTSHNIFSRSNNKDYLAWYQQKPGQPPRLLIYWASTRASGVPERFSGSGSGTDFSLTISSLQAEDVAVYYCQQYYSSPMYSFGQGTKVEIKRAA"}, "B14": {"name": "SC03-037 (scFv)", "scFv": "AMAKVQLVQSGGGLIQPGGSLRLSCAASGFTVSSNYMSWVRQAPGKGLEWVSIVFSGGSTYYADSVKGRFTISRDNSKNTLYLQMNSLRAEDTAVYYCARDAHRGFGMDVWGQGTTVTVSSGTGGSGGTGSGTGGSTSSELTQDPAVSVALGQTVRITCQGDSLRSYYASWYQQKPGQAPVLVIYGKNNRPSGIPDRFSGSSSGNTASLTITGAQAEDEADYYCNGRDSSGNHWVFGGGTKLTVLGAA"}, "B15": {"name": "SC03-038 (scFv)", "scFv": "B14 scFv with K4E, N205D, G226S"}, "B16": {"name": "SC03-024 (scFv)", "scFv": "AMAQVQLVESGSELKIPGASVKVSCKATGYTFTRYSLNWVRQAPGQGLEWVGWINTQTGNSNYGQAFSGRFVFSLDTSVSTAYLQISSLQAEDTATYYCARKSAGSNAFDIWGQGTMVTVSSGTGGSGGTGSGTGGSTQSVVTQPPSVSAAPGQKATISCSGSSSNIGNNYVSWYQQLPGTAPKLLIYDNNKRPSGIPNRFSGSKSGTSATLGITGLQTGDEADYYCGTWDSSLSAYVFGTGTKVTVLGAA"}, "B17": {"name": "SC03-026 (scFv)", "scFv": "B6 scFv with L140M, V165I, R168S, N171S, A176G, S201P, E202D, L246V"}, "B18": {"name": "SC03-020 (scFv)", "scFv": "B4 scFv with Q4E, T12S, G164S, S166K, Y169H, D173N, Y240P, T241V, Q244G"}, "B19": {"name": "SC03-021 (scFv)", "scFv": "B4 scFv with I140V, Q141V, G164S, I167V, Y169H, D173N, E199Q, Y240P"}, "B20": {"name": "SC03-025 (scFv)", "scFv": "B6 scFv with Q4E, Q9E, R168S, T195I, S201P, E202D, S235N, T236I, S239A"}, "B21": {"name": "SC03-023 (scFv)", "scFv": "AMAQVQLQQWGAGLLKPSETLSLTCAVYGGSFSGFYWSWIRQPPGKGLEWIGEINHSGSTNYNPSLKSRVTISVDTSKNQFSLKLSSVTAADTAVYYCARRVEVVEYQLLRPRYKSWFDPWGQGTLVTVSSGTGGSGGTGSGTGGSTQSALTQPRSVSGSPGQSVTISCTGSSSTVGGYNYVSWYQQHPGKAPKLMIYDVSKRPSGVSNRFSGSKSGNTASLTISGLQAEDEADYYCSSYTSSSTYVFGTGTKVTVLGAA"}}, "note": "Changes are numbered by the printed parent chain."}
{"biological_target": "UV-inactivated SARS-CoV preparation (Frankfurt 1 strain) (SARS-CoV strain Frankfurt 1)", "assay": "phage ELISA, plate 3 (no phage 0.054)", "units": {"OD492nm": "OD492nm"}}
{"binder": "B1", "OD492nm": 1.9}
{"binder": "B2", "OD492nm": 0.608}
{"binder": "B3", "OD492nm": 0.802}
{"binder": "B4", "OD492nm": 0.602}
{"binder": "B5", "OD492nm": 0.24}
{"binder": "B6", "OD492nm": 1.27}
{"binder": "B7", "OD492nm": 0.851}
{"binder": "B8", "OD492nm": 1.19}
{"biological_target": "UV-inactivated SARS-CoV preparation (Frankfurt 1 strain) (SARS-CoV strain Frankfurt 1)", "assay": "phage ELISA, plate 4 (no phage 0.051)", "units": {"OD492nm": "OD492nm"}}
{"binder": "B9", "OD492nm": 0.635}
{"binder": "B10", "OD492nm": 0.616}
{"binder": "B11", "OD492nm": 0.518}
{"binder": "B12", "OD492nm": 0.428}
{"binder": "B13", "OD492nm": 0.288}
{"binder": "B14", "OD492nm": 0.287}
{"binder": "B15", "OD492nm": 0.314}
{"biological_target": "UV-inactivated SARS-CoV preparation (Frankfurt 1 strain) (SARS-CoV strain Frankfurt 1)", "assay": "phage ELISA, plate 2 (no phage 0.211)", "units": {"OD492nm": "OD492nm"}}
{"binder": "B16", "OD492nm": 0.235}
{"binder": "B17", "OD492nm": 1.07}
{"binder": "B18", "OD492nm": 0.671}
{"binder": "B19", "OD492nm": 0.215}
{"binder": "B20", "OD492nm": 1.64}
{"binder": "B21", "OD492nm": 1.31}
